Laboratory results reported in article PMC5308003.

Molecular target: T1, 6His-OxyR-Like (Magnetospirillum gryphiswaldense MSR-1) (UniProt V6F1S1)
T1 sequence: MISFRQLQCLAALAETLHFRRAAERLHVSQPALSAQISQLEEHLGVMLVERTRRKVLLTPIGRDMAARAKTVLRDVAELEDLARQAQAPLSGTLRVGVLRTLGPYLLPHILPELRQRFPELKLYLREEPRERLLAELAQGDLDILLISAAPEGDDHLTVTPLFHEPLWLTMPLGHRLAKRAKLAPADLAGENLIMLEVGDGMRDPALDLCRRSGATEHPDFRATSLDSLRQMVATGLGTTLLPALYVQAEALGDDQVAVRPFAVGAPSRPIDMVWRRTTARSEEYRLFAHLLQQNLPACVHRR
Assay: EMSA
Conditions: EMSA: DIG Gel Shift Kit 2nd Gen (Roche) binding buffer with 1 uL poly[d(I-C)], 20 uL, 25 C 30 min, 5% native PAGE in 0.5x TBE; footprinting: 1000 ng labeled …

Sequence	binding
CTTGATCCCGATAATCTGCTGATCGTGGTGGTCGGCAAGCCGGAAGGGGTCAACGGCACGCCCTAACCCGAAAAGACGGCGGCGGCAAAAATCAACGCCGCCCAGTGATCCGTTTCTCCCGTGACACCGTAGAAGGGTCATAAGGAGAAACGCGATGCCTCGGATCATCAAGATTGTTGCCGGCGCTTTGGCCACCTGTCTGGCGGCGACGGCCCCGGCCAAGGCCAGTGGTGCTGTCTTGGACT (double strand) [bsaA promoter EMSA probe]	no binding
GGGCGAAGAATGGACATCGTCGTCTCCATTAGGCTGTTGTCCGTGATTGAGACTATGCCCCCTTCTTTGTGATAATTCTAATCGATATATCTTGAGATATTGATAGTAAATTGTTATCAGTGATCCATGATCAGCTTTCGCCAATTACAATGCCT (double strand) [oxyR-Like promoter EMSA probe]	binds
TGGGCTGTTGCTTGTCTTATCTTTTTTCATTTCCGCCTCACAGGCTGAATTATCTGAAAAGGAAATAGATGAGGATCAGGACTGGGATGGGAACGCCAACCAGCCAGAGAAGGCCGTATTTCATTTCCTACCTCGCTGTTCTGCCGGTGTGTCATGGGGCAATGGAGCCGTCCTGATACAAGA (double strand) [katE promoter EMSA probe]	no binding
CAGGGCAGGATGATGTGAGTGCGTAGACAGATAGGTAAACCAACCTTCCCTTTTAGGCAAGGCGTTTCGCCGTCAAAAATGCTTATATTGCAATGCAATAATGGCAATTAACTGGATAATAGTTATTTATCAAAACCTAACCAGATGGGCGGGCAACGGGTGGTGCGATGCAGCAATCCTTTTGCCTCATCGGGTTAGCGCCTGACAGGGATATTGGGAGCGGGCAAACACTTGAAAACCCACCCGGCGGACAAAATCGCGCCAACCGGTCCATTTCACAATGCACCCATTCAGAGCAAA (double strand) [pdh promoter EMSA probe]	binds
CGGCACTTGTTCCATGAACTTCGACCATATCGCTCTCCCATTCAACCAATTGTTAGCCTTGGGCTTGGCGATATTCTAACCGTTCCTCCATTCAACTCATACAGATGTGGTTTAGAAGCTTTTTAATAAATACTTGAGGGTCCGGAAATCATTAGCCGAACCCTCAATAGCCTCAGCTATGCAGGCCGGGGGCTTCATGTCCGGTGCGGGCCACGTATTCGGTGTAGCCGC (double strand) [katG promoter EMSA probe]	no binding
